According to paper PMC6445466:

What was measured:
[1] = target: human C1r, full-length enzyme (human) (UniProt P00736)
[2] = target: BAD16-C (residues 204-352, B. afzelii strain PGau) (Borrelia afzelii strain PGau); test: SPR; Biacore T200, 25°C; borrelial protein immobilised by amine coupling (CMD200M chip); C1 as analyte, two-fold dilution series 0 to 150 nM, 2 min association, 3 min dissociation; HBS-T (20 mM HEPES pH 7.3, 140 mM NaCl, 0.005% Tween-20) with 5 mM CaCl2; 1:1 kinetic fit; triplicate
[3] = target: BBK32(206-348) (residues 206-348, B. burgdorferi strain B31) (Borrelia burgdorferi strain B31) (UniProt O50835); test: as above
[4] = target: BBK32-C (residues 206-354, B. burgdorferi strain B31) (Borrelia burgdorferi strain B31) (UniProt O50835); test: as above
[5] = target: BXK32-C (BBK32-C E308K-Q319K-E324Q) (Borrelia burgdorferi strain B31) (UniProt O50835); test: as above

Sequence of human C1r, full-length enzyme (human) (P00736 18-705): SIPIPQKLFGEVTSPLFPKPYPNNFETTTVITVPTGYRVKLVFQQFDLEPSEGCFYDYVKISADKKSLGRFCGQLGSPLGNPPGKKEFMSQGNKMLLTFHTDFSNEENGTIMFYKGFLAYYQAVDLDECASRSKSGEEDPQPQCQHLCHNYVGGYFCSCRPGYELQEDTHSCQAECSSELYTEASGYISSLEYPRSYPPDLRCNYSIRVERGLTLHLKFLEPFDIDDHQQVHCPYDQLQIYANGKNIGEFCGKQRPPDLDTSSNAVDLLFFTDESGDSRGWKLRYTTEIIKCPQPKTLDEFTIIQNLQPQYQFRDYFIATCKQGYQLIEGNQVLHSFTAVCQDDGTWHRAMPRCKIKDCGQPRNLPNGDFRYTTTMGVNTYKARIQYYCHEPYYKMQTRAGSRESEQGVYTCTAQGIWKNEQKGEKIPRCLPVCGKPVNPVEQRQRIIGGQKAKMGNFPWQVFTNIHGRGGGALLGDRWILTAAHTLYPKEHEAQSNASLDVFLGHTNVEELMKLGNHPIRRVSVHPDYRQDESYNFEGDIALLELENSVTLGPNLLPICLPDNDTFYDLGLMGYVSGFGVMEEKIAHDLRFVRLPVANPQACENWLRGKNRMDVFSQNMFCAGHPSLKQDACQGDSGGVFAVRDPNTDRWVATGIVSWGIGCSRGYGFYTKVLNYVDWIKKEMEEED

| Substance | IC50 of C3b deposition, classical pathway-specific ELISA with normal human serum [1] [nM] | IC50 of MAC deposition, classical pathway-specific ELISA with normal human serum [1] [nM] | IC50 of classical pathway hemolysis of sensitized sheep red blood cells by human serum [1] [nM] | Kd [2] [nM] | Kd [3] [nM] | koff [3] [s⁻¹] | Kd [4] [nM] | koff [4] [s⁻¹] | Kd [5] [nM] | koff [5] [s⁻¹] |
| --- | --- | --- | --- | --- | --- | --- | --- | --- | --- | --- |
| BAD16-C (residues 204-352, B. afzelii strain PGau) (domain or fragment) | 9.6 | 5.9 | 55 |  |  |  |  |  |  |  |
| human C1 complex (from UniProt P02745 23-245; P02746 28-253; P02747 29-245) |  |  |  | 5.4 | 5.6 | 0.00054 | 6 | 0.0005 | 4.7 | 3.8e-05 |
